Results as given in US20060269997A1 (Genentech, published 2006).
Numbering of substitutions follows the chain as printed. In names and notes the source's numbering stands.

B1: LK-VRB-2f (ligand, human, UniProt P15692-4 27-191, looked up)
chain: APMAEGGGQNHHEVVKFMDVYQRSYCHPIETLVDIFQEYPDEIEYIFKPSCVPLMRCGGCCNSEMRECVPTEESNITMQIMRIKPHQGQHIGEMSFLQHNKCECRPKKDRARQENPCGPCSERRKHLFVQDPQTCKCSCKNTDSRCKARQLELNERTCRCDKPRR
notes: also called KDR-selective VEGF variant; KDR-sel
B2: WT VEGF (ligand, human, UniProt P15692-4 27-191, looked up)
VEGF monomer: B1 chain with S63D, M65G, R66L
B3: native VEGF (8-109) (ligand, human, UniProt P15692 214-315, looked up)
chain: GQNHHEVVKFMDVYQRSYCHPIETLVDIFQEYPDEIEYIFKPSCVPLMRCGGCCNDEGLECVPTEESNITMQIMRIKPHQGQHIGEMSFLQHNKCECRPKKD
modifications: biotinylated where used as tracer
B4: Flt-sel (I43A/I46A/Q79A/I83A, VEGF 1-109 form) (ligand, human, UniProt P15692-4 27-135, looked up)
chain: APMAEGGGQNHHEVVKFMDVYQRSYCHPIETLVDIFQEYPDEAEYAFKPSCVPLMRCGGCCNDEGLECVPTEESNITMAIMRAKPHQGQHIGEMSFLQHNKCECRPKKD
notes: also called Flt-1-sel; Flt-1 selective variant
B5: LK-VRB-3s (ligand, human, UniProt P15692-4 27-135, looked up)
chain: B4 chain with F17I, M18E, Y21F, Q22K, Y25S, A43I, A46I, A79Q, A83I
B6: LK-VRB-2s* (ligand, human, UniProt P15692-4 27-135, looked up)
chain: B4 chain with A43I, A46I, D63S, G65M, L66R, A79Q, A83I
notes: also called KDR selective variant
B7: LK-VRB-1s* (ligand, human, UniProt P15692-4 27-135, looked up)
chain: B4 chain with M18E, Y21L, Q22R, Y25S, A43I, A46I, A79Q, A83I
B8: LK-VRB-8s* (ligand)
chain: B4 chain with Y21L, A43I, A46I, D63S, G65M, L66R, A79Q, A83I
B9: LK-VRB-7s* (ligand, human, UniProt P15692-4 27-135, looked up)
chain: B4 chain with M18E, A43I, A46I, D63S, G65M, L66R, A79Q, A83I
B10: LK-VRB-4s (ligand, human, UniProt P15692-4 27-135, looked up)
chain: B4 chain with F17I, M18E, Y21F, Q22E, Y25I, A43I, A46I, A79Q, A83I

Columns and labels:
[1] = biological target: KDR on human umbilical vein endothelial cells (HUVEC) (human, UniProt P35968 20-1356); assay: cell-based or functional assay
KDR on human umbilical vein endothelial cells (HUVEC), sequence (P35968 20-1356): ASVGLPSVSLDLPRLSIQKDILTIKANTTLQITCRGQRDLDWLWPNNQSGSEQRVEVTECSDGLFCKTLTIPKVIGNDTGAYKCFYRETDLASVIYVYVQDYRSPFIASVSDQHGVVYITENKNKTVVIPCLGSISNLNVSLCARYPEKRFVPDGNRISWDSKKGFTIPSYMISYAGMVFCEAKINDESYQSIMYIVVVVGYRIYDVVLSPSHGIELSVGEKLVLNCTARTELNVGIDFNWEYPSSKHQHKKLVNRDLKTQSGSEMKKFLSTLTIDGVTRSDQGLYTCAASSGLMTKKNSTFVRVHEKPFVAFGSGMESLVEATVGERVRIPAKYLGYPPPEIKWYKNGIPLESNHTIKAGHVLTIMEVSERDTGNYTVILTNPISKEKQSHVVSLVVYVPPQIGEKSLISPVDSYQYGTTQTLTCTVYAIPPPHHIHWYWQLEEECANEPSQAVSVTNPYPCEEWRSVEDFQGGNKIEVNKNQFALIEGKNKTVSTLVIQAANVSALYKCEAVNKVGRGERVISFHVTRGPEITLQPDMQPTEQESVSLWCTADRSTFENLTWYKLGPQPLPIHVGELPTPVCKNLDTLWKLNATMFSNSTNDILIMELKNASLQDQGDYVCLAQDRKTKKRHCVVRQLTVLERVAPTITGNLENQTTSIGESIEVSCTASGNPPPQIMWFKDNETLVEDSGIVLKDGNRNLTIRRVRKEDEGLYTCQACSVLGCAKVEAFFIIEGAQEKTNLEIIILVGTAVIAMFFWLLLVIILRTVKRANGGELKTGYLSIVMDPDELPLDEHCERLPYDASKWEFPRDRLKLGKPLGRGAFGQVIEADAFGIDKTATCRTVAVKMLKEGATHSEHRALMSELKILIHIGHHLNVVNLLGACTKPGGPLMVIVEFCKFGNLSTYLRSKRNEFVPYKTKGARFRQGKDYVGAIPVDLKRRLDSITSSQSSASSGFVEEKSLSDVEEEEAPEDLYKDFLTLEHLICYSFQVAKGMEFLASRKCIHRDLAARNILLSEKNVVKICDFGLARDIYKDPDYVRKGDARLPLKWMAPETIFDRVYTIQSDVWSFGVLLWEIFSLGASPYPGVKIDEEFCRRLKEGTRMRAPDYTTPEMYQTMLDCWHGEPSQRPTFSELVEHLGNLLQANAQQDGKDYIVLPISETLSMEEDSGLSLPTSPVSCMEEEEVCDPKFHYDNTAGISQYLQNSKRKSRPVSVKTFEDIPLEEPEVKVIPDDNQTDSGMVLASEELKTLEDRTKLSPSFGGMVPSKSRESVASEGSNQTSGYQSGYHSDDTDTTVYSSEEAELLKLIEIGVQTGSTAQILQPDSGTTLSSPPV

[2] = biological target: T1, Flt-IgG (a chimeric Flt-human Fc molecule) (UniProt P17948 27-758, limits assumed); assay: competition ELISA vs biotinylated native VEGF, Flt-IgG captured by anti-Fc
T1 construct: Only described as a chimeric Flt-human Fc molecule; not shown: human Fc
T1 sequence (P17948 27-758 limits assumed, change not shown): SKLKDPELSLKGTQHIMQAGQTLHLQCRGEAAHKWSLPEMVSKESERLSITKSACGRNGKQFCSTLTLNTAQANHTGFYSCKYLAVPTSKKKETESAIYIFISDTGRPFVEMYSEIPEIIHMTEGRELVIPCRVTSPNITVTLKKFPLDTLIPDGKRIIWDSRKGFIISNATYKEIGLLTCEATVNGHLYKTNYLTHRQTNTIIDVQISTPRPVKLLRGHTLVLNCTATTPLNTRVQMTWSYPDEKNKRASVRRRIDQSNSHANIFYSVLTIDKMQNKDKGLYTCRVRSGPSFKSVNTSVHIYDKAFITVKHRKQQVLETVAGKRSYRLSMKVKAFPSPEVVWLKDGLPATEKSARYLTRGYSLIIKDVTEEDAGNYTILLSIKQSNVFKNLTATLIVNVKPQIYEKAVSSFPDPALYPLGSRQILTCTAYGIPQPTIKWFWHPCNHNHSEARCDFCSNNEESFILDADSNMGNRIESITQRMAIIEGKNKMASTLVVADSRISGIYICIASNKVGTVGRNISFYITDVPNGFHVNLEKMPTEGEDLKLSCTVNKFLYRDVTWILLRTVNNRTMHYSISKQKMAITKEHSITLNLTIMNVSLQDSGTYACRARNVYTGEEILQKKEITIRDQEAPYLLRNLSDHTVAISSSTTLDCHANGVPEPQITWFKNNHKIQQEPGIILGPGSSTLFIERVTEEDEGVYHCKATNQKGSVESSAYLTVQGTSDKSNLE
Description: (§1) Receptor binding assays were performed in 96-well immunoplates (Maxisorp, Nunc-Immunoplate, Nalge Nunc International, Rochester, N.Y.). Each well was coated with 100 μl of a solution containing 2 μg/ml of rabbit F(ab′)2 to human IgG Fc (Jackson ImmunoResearch, West Grove, Pa.) in 50 mM carbonate buffer at pH 9.6 and incubated at 4° C. overnight. The supernatant was then discarded, the wells were washed three times in washing buffer (0.05% Tween 20 in PBS), and the plate was blocked (150 μl per well) with block buffer (0.5% BSA, 0.01% thimerosal in PBS) at room temperature for one hour. The supernatant was discarded, and the wells were washed.
The wells were filled with 100 μl of a solution containing Flt-IgG (a chimeric Flt-human Fc molecule) at 50 ng/ml in assay buffer (0.5% BSA, 0.05% Tween 20 in PBS). The wells were incubated at room temperature for 1 hour and then washed three times in wash buffer (0.05% Tween 20 in PBS).
(§2) Aliquots of the mixture (100 μl) were added to the precoated microtiter wells and the plate was incubated for 2 hours at room temperature. […] The wells were then incubated with 3,3′, 5,5′-tetramethyl benzidine (0.2 g/liter, Kirkegaard & Perry Laboratories, Gaithersburg, Md.) for about 10 minutes at room temperature. Absorbance was read at 450 nm on a Vmax plate reader (Molecular Devices, Menlo Park, Calif.).

[3] = biological target: T2, Flt-1 on Flt-1-transfected NIH3T3 cells (UniProt P17948 27-1338, limits assumed); assay: competitive displacement of 125I-VEGF (legend: 1-165; Example 7: 1-109) from Flt-1-transfected NIH3T3 cells
T2 construct: whole, on cells; also called FLT-1 expressing NIH3T3 cells; Flt-1-transfected cells
T2 sequence (P17948 27-1338 limits assumed): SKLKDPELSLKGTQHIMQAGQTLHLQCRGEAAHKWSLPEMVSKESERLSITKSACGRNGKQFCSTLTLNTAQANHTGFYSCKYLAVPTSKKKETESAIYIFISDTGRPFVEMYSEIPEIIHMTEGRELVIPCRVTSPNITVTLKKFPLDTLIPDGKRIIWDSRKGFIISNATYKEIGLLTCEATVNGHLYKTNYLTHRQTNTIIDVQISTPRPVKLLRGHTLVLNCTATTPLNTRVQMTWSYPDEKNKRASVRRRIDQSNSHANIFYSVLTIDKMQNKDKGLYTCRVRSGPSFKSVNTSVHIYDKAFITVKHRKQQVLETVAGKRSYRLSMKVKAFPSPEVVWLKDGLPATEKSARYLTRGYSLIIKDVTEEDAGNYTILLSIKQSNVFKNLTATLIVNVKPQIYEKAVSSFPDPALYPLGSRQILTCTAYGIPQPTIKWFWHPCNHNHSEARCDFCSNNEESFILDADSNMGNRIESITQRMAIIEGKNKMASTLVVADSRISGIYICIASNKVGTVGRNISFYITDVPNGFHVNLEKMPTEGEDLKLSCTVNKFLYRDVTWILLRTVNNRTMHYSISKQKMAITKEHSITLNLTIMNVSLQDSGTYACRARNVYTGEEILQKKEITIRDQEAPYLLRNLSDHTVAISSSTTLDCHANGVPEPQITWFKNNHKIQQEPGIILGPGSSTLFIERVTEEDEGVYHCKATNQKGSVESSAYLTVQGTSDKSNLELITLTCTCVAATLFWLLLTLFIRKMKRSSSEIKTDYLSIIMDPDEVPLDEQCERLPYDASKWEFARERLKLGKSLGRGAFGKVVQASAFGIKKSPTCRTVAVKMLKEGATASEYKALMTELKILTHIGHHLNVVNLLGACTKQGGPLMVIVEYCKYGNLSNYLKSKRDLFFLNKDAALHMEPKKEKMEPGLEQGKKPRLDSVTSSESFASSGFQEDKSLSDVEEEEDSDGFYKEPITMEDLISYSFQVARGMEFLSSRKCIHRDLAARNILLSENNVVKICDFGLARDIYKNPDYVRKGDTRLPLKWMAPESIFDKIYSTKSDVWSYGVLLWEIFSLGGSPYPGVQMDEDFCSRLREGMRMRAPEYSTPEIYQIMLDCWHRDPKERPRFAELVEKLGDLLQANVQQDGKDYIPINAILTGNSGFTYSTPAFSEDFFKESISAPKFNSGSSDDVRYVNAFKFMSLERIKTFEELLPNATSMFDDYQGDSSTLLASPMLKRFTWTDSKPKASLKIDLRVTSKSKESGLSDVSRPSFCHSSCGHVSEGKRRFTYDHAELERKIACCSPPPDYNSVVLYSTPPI
Description: (§3) KDR or Flt-1 transfected NIH3T3 cells were prepared as described by Fuh et al., J. Biol. Chem., 273:11187-11204 (1998). The transfected cells were maintained in F12 media supplemented with 10% FBS and 400 ug/ml G418 (GibcoBRL). For the binding assays, the cells were plated in 12-wells plates at 1×10⁶/well to reach confluency next day. […] The plates were incubated at 4° C. for three hours and then washed two times with HBS with […].

[4] = biological target: gD-KDR receptor on CHO cells (UniProt P35968 20-1356); assay: cell-based or functional assay
KDR (1-3) monomer [5] = biological target: T3, KDR (1-3) monomer (UniProt P35968 20-327, limits assumed, biotin-labeled in the ELISA of Example 8); assay: competition ELISA: inhibits binding of biotinylated native VEGF (8-109) to KDR (1-3) captured by antibody MAKD5 (Example 2)
T3 construct: domain: domains 1 to 3; Genentech reagent; also called domains 1 to 3 of KDR
T3 sequence (P35968 20-327 limits assumed): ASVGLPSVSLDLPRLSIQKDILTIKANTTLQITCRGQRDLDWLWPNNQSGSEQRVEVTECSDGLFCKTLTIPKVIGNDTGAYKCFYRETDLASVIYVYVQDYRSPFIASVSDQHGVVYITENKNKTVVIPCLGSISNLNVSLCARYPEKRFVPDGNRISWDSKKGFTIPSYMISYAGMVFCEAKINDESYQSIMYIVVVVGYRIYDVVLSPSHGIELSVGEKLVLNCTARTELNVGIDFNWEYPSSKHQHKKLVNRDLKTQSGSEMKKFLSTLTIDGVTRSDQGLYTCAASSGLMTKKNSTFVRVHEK
Description: as §1, with “containing 8” for “containing 2”, “of a monoclonal antibody” for “of rabbit F(ab′)2”, “to KDR known as MAKD5 (Genentech, South San Francisco, Calif.)” for “to human IgG Fc (Jackson ImmunoResearch, West Grove, Pa.)”, “was” for “was then”
as §2, with “of this” for “of the”, “for 1 hour” for “for 2 hours”, “(0.2 gram/liter;” for “(0.2 g/liter,”
(§4) Titration curves were fit with a four-parameter nonlinear regression curve-fitting program (KaleidaGraph, Synergy Software, Reading, Pa.).

[6] = biological target: KDR receptor (soluble RIA of Examples 6 and 8) (UniProt P35968); assay: soluble radio-immuno receptor-binding assay (RIA)
KDR receptor (soluble RIA of Examples 6 and 8) (UniProt P35968), sequence (P35968 20-764 limits assumed): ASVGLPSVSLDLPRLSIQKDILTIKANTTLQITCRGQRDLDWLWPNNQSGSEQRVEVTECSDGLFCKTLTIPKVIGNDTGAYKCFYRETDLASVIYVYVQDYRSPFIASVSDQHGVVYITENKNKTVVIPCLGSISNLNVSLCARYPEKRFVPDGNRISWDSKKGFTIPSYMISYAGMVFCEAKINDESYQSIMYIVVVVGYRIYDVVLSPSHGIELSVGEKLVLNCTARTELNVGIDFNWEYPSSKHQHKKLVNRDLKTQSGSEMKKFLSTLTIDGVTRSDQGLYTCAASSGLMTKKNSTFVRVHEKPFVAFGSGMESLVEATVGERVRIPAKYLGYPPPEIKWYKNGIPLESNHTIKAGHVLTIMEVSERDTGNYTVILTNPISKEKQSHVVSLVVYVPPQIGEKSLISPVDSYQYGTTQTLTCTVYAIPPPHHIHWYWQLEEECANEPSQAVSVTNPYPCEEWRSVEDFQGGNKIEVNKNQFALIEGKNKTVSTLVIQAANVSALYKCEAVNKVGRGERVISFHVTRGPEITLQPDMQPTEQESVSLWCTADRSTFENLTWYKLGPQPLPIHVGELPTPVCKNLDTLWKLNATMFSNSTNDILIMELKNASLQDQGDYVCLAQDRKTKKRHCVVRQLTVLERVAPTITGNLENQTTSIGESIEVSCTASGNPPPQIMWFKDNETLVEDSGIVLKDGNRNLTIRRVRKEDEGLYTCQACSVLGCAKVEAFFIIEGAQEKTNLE

[7] = biological target: T4, KDR on KDR-transfected NIH3T3 cells (UniProt P35968 20-1356, limits assumed); assay: competitive displacement of 125I-VEGF (legend: 1-165; Example 7: 1-109) from KDR-transfected NIH3T3 cells
T4 construct: whole, on cells; also called KDR expressing NIH3T3 cells; KDR-transfected 3T3 cells
T4 sequence (P35968 20-1356 limits assumed): as the sequence (P35968 20-1356) above
Description: as §3

KDR (1-3) monomer [8] = biological target: T3, KDR (1-3) monomer; assay: competition ELISA vs biotinylated VEGF (8-109), soluble KDR (1-3) captured by MAKD5
Description: as §1, with “containing 8” for “containing 2”, “of a monoclonal antibody” for “of rabbit F(ab′)2”, “to KDR known as MAKD5 (Genentech, South San Francisco, Calif.)” for “to human IgG Fc (Jackson ImmunoResearch, West Grove, Pa.)”, “was” for “was then”
as §2, with “of this” for “of the”, “for 1 hour” for “for 2 hours”, “(0.2 gram/liter;” for “(0.2 g/liter,”
as §4

[9] = biological target: KDR receptor (soluble RIA of Examples 6 and 8) (UniProt P35968 20-764, limits assumed); assay: radio-immuno receptor-binding assay (RIA)
KDR receptor (soluble RIA of Examples 6 and 8) (UniProt P35968 20-764, limits assumed), sequence (P35968 20-764 limits assumed): as the sequence (P35968 20-764 limits assumed) above

[10] = biological target: FLT-1 receptor (soluble RIA of Examples 6 and 8) (UniProt P17948 27-758, limits assumed); assay: radio-immuno receptor-binding assay (RIA)
FLT-1 receptor (soluble RIA of Examples 6 and 8), sequence (P17948 27-758 limits assumed): as the sequence (P17948 27-758 limits assumed, change not shown) above

Binder | Endothelial Cell Proliferation Activity (HUVEC, 3H-thymidine), concentration [1] | IC50 [2] | Phosphorylation-Inducing Activity (KIRA), midpoint concentration [4] | Phosphorylation-Inducing Activity (KIRA), ratio to native VEGF (8-109) [4] | Relative Binding Affinity (ratio to native VEGF (8-109)) [2] | IC50 (KDR (1-3) monomer [8]) | Relative Binding Affinity (ratio to native VEGF (8-109)) (KDR (1-3) monomer [8]) | Endothelial Cell Proliferation Activity (HUVEC), ratio to native VEGF (8-109) [1] | other results
B1 | 0.05 nM | 19 nM |  |  |  |  |  |  | 
B2 |  |  |  |  |  |  |  |  | IC50 (read off the curve) [3]: ~0.04 nM
B3 | 0.5 nM | 0.42 nM | 2 nM |  |  |  |  |  | IC50 (read off the curve) (KDR (1-3) monomer [5]): ~2 nM
B4 |  |  |  |  |  |  |  |  | fold reduced KDR-binding affinity (against native VEGF) [6]: > 470 fold; binding result [7]: no binding (tested: log -6.7 M (about 2e-7 M)); binding result [3]: binds
B5 |  | 170 nM | 2 nM | 1 fold | 400 fold | 1 nM | 1 fold |  | 
B6 | 0.05 nM |  | 2 nM |  |  |  |  |  | IC50 (read off the curve) [7]: ~0.8 nM; IC50 (read off the curve) [3]: ~10 nM
B7 | 0.1 nM | 2700 nM | 1 nM | 0.5 fold | 6000 fold | 1 nM | 1 fold | 0.2 fold | Relative Binding Affinity (ratio to native VEGF 165) [9]: 20 fold; Relative Binding Affinity (ratio to native VEGF 165) [10]: 14000 fold
B8 | 0.5 nM |  |  |  |  | 0.5 nM | 0.5 fold | 1 fold | 
B9 | 0.5 nM |  |  |  |  | 1 nM | 1 fold | 1 fold | 
B10 |  | 100 nM | 1 nM | 0.5 fold | 200 fold | 1 nM | 1 fold |  | 
